The results in this text go back to patent US20210363269A1 (ALX ONCOLOGY, published 2021).

In assay [1] the target is T1, cynomolgus SIRP-α D1 domain (SEQ ID NO:12) (cynomolgus, UniProt Q5TFQ8 30-148 (human entry), limits assumed).
T1 construct: also called cyno2; Cyno2
T1 chain: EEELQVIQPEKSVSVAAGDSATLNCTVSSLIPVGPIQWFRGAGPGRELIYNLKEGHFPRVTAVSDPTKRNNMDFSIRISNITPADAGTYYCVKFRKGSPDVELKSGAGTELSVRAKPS
Briefly: SPR, Langmuir fit.

The target of assay [2] is T2, cynomolgus SIRP-α D1 domain (SEQ ID NO:11) (cynomolgus, UniProt Q5TFQ8 30-148 (human entry), limits assumed).
T2 construct: also called cyno1
T2 chain: T1 chain with D19E, V27A, S28T, A42V, N51H, L52Q, A62P
Put plainly: SPR, Langmuir fit. (In SPR one partner is held on a chip, and binding of the other changes the refractive index at the surface.)

Assay [3] deals with T3, NOD mouse SIRP-α D1 domain (mouse (NOD strain)).
T3 chain: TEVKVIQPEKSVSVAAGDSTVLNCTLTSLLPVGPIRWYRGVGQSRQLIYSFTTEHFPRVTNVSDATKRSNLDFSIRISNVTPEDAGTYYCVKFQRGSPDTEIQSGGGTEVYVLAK
Put plainly: SPR, Langmuir fit.

The target of a further assay is T4, human SIRPβ isoform 1 (human, UniProt O00241 30-148).
T4 construct: also called sirpb1; Sirpb1
T4 sequence (O00241 30-148 limits assumed): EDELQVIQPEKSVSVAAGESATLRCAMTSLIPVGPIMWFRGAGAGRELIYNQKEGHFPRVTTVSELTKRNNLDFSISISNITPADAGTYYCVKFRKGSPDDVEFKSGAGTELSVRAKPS
Put plainly: SPR, Langmuir fit.

Assay [4] has as its target T5, human SIRP-α v1 D1 domain (human, UniProt P78324 31-149).
T5 construct: also called human v1; human α v1
Briefly: SPR, Langmuir fit.

Assay [5] deals with T6, human SIRP-α v2 D1 domain (human).
T6 construct: also called human v2; human α v2
Briefly: SPR, Langmuir fit.

The target in assay [6] is T7, C57BL/6 mouse SIRP-α D1 domain (mouse (C57BL/6 strain), UniProt P97797 32-148).
T7 sequence: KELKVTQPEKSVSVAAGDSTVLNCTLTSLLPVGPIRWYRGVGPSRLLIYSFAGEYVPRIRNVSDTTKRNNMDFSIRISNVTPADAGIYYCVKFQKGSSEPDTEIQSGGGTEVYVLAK
Briefly: SPR, Langmuir fit.

The target of assay [7] is T8, BALB/c mouse SIRP-α D1 domain (mouse (BALB/c strain)).
T8 chain: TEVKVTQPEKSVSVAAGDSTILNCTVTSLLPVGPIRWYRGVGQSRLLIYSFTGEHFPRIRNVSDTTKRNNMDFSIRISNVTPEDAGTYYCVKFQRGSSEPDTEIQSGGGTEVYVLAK
Briefly: SPR, Langmuir fit.

The target in the next assay is T9, human SIRPβ isoform 2 (human, UniProt Q5TFQ8 30-148).
T9 construct: also called Sirpb2; beta isoform 2
T9 sequence (Q5TFQ8 30-148 limits assumed): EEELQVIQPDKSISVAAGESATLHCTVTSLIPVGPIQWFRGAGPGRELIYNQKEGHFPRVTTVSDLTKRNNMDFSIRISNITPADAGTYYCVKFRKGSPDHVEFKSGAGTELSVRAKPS
Put plainly: SPR, Langmuir fit.

For assay [8], the target named is T10, human SIRPγ isoform 1 (human, UniProt Q9P1W8 29-147).
T10 construct: also called sirpg; sirp-g
Briefly: SPR, Langmuir fit.

For assay [9], the target named is T2, cynomolgus SIRP-α D1 domain (SEQ ID …). Put plainly: SPR, antibody immobilised on GLC chip. The protocol: (§1) All experiments were performed at 25° C. using a SPR-based ProteOn XPR36 biosensor (BioRad, Inc, Hercules, Calif.) equipped with GLC or NLC sensor chips. […] Purification was carried out by standard Protein A affinity column chromatography and eluted antibodies were stored in PBS buffer.
(§2) For the method using GLC chip, the analytes were injected and flowed over anti-SIRPα antibodies immobilized (˜1000 RUs) on GLC chips using Proteon™ Amine Coupling Kit. For the immobilization step, GLC chip was activated with EDAC/Sulpho-NHS 1:1 (Biorad) diluted 1/100 for 300 s at 25 μL/min. Anti-SIRPα antibodies were diluted to 80 nM concentration in 10 mM sodium acetate buffer pH 4.5 and immobilized to the chip at 30 μL/min for 50 s. Chip was inactivated with ethanolamine for 300 s at 25 μL/min. The analytes (e.g., SIRP-α from different species, SIRP-β, SIRP-γ) were injected in a “one-shot” kinetic mode at nominal concentrations of 100, 33, 11, 3.7, 1.2 and 0 nM. Association times were monitored for 90 s at 100 μL/min, and dissociation times were monitored for 1200 s. The surfaces were regenerated with a 2:1 v/v blend of Pierce IgG elution buffer/4M NaCl. […]

For assay [10], the target named is T3, NOD mouse SIRP-α D1 domain. Briefly: SPR, antibody immobilised on GLC chip. Here is the method: as §1, §2
Assay [11] addresses T5, human SIRP-α v1 D1 domain. Put plainly: SPR, antibody immobilised on GLC chip. Here is the method:
as §1, §2

For assay [12], the target named is T6, human SIRP-α v2 D1 domain. Put plainly: SPR, antibody immobilised on GLC chip. Here is the method: as §1, §2
Assay [13] concerns the target T7, C57BL/6 mouse SIRP-α D1 domain. Briefly: SPR, antibody immobilised on GLC chip. The protocol:
as §1, §2

Assay [14] has as its target T8, BALB/c mouse SIRP-α D1 domain. Briefly: SPR, antibody immobilised on GLC chip. Here is the method: as §1, §2
The target in assay [15] is T10, human SIRPγ isoform 1. Briefly: SPR, antibody immobilised on GLC chip. Here is the method: as §1, §2
The target in assay [16] is T2, cynomolgus SIRP-α D1 domain (SEQ ID …). Put plainly: SPR, antibody immobilised on GLC chip.
Assay [17] deals with T5, human SIRP-α v1 D1 domain. Briefly: SPR, antibody immobilised on GLC chip. This is another data set of the same source.
Assay [18] has as its target T6, human SIRP-α v2 D1 domain. Put plainly: SPR, antibody immobilised on GLC chip; Table M cell, 119 Mut/mut on human v2. In outline: (§3)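 On a ProteOn XPR36 biosensor, Protein A-purified antibodies were amine-coupled to a GLC chip at about ~1000 RU after dilution to 80 nM in 10 mM sodium acetate pH 4.5. SIRP analytes at 100, 33, 11, 3.7, 1.2 and 0 nM were then injected one-shot in PBS pH 7.4 containing 0.01% Tween-20 at 25° C, with 90 s of association at 100 μL/min and 1200 s of dissociation. The dissociation constant (KD) was calculated as kd/ka from a global Langmuir fit of double-referenced data.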

Assay [19] has as its target T11, human SIRP-α v1 D1 domain (human, UniProt P78324 31-149).
T11 construct: biotinylated and captured on avidin in the ELISA; also called human v1
Briefly: SPR, antibody immobilised on GLC chip; sentence of the text that cites Table M. A digest of the protocol:
as §3

For assay [20], the target named is T12, human SIRP-α v2 D1 domain (human).
T12 construct: biotinylated and captured on avidin in the ELISA; also called human v2
The assay is described as above. A digest of the protocol: as §3

Assay [21] addresses T13, human SIRPγ isoform 1 (human, UniProt Q9P1W8 29-147).
T13 construct: also called human SIRP-γ v1; sirpg
Briefly: ELISA, target coated on the plate, scFv-Fc titrated from 0.008 to about 1 µg/ml, OD 405. Here is the method:
(§4) ELISA assays were carried out to screen binding of antibody clones to SIRP analytes and SIRP-α:CD47 complex. […] Plates were blocked with PBS™ (Phosphate Buffered Saline pH 7.4, 0.05% Tween®20 polysorbate, 3% milk), 50 ul of supernatant containing the secreted scFv-Fc are added for 1 hr at room temp. Plates were washed with PBST. 50 ul of anti-hFc-HRP (1:5000 Rockland 609-4303) added for 1 hr at room temp. Plates were washed with PBST. TMB was developed for 5 min and stopped with 1N HCl. ELISA results were read using BioTek Synergy H1 Hybrid Reader. The corresponding proteins used for the assay and described here are: human SIRPα V1 (SEQ ID NO: 5); human SIRPα V2 (SEQ ID NO:6); cynomolgus SIRPα (SEQ ID NO:11); mouse NOD SIRPα (SEQ ID NO: 8); human SIRPγ (SEQ ID NO: 15); CD47 (SEQ ID NO: 16); high affinity SIRPα V1 (SEQ ID NO: 42); high affinity SIRPα V2 (SEQ ID NO:17).

The target in assay [22] is T14, NOD mouse SIRP-α D1 domain (mouse (NOD strain)).
T14 construct: also called mouse NOD SIRPα
T14 chain: T3 chain
The assay is described as above. Here is the method:
as §4

Assay [23] addresses T12, human SIRP-α v2 D1 domain. Described as above. The protocol: as §4

Numbering of substitutions follows the chain as printed. Numbers in names are those of the source.

B1: AB3 (as in Table J1) (antibody, V domains shown)
VH: AVTLDESGGGLQTPGGALSLVCKASGFIFSDYGMNWVRQAPGKGLEFVAQITSGSRTYYGAAVKGRATISRDNRQSTVKLQLNNLRAEDTGIYFCARDFGSGVGSIDAWGNGTEVIVSS
VL: ALTQPASVSANLGGTVKITCSGSRGRYGWYQQRSPGSAPVTVIYRDNQRPSNIPSRFSSSTSGSTSTLTITGVQADDESVYFCGSYDGSIDIFGAGTTLTVL
notes: also called antibody 3
On to B1, for which the Kd in [1] was found to be 2850 pM; in assay [2], 2290 pM; in [3] it was 1630 pM; in the assay with human SIRPβ isoform 1, 1630 pM; in assay [4], 162 pM; in [5] it was 76.7 pM. The Kd in assay [6] was found to be 3650 pM; in assay [7], 1160 pM; with human SIRPβ isoform 2, 67.8 pM; with human SIRPγ isoform 1 [8], 83600 pM.

B2: antibody 136 variant MutRv_I2T/mut_V34M (antibody, human IgG1, V domains shown)
VH: EVQLVESGGGVVQPGRSLRLSCAASGFTFSSYDMNWVRQAPGKGLEWVSLISGSGEIIYYADSVKGRFTISRDNSKNTLYLQMNSLRAEDTAVYYCAKENNRYRFFDDWGQGTLVTVSS
VL: ETVLTQSPGTLSLSPGERATLSCRASQSVYTYLAWYQQKPGQAPRLLIYGASSRATGIPDRFSGSGSGTEFTLTISSLQSEDFAVYYCQQYYDRPPLTFGGGTKVEIK
notes: Human IgG1 with L234A/L235A/G237A/N297A; Labels are light chain/heavy chain
Regarding B2, the Kd in assay [9] was 2110 pM; in assay [10], 596 pM; in assay [11] it was 551 pM; in [12] it was 1740 pM; in assay [13], 13800 pM; in assay [14], 361 pM. The same molecule had a Kd in the assay with human SIRPγ isoform 1 [15] of 33500 pM.

B3: antibody 119 variant Mut/mut (VL mut all / VH mut) (antibody, human IgG1, V domains shown)
VH: EVQLLESGGGVVQPGGSLRLSCAASGFSFSNFAVTWVRQAPGKGLEWVSTIGSGDTYYADSVKGRFTISRDNSKNTLYLQMNSLRAEDTAVYYCAKDSTVSWSGDFFDYWGQGTLVTVSS
VL: EIVLTQSPATLSVSPGERATLSCRASQNVKNDLAWYQQKPGQAPRLLIYAARIRETGIPARFSGSGSGTEFTLTISSLQSEDFAVYYCQQYYDWPPFTFGGGTKVEIK
notes: Human IgG1 with L234A/L235A/G237A/N297A; Labels are in the order VL/VH
For the molecule B3, the Kd in [16] came to 195 pM; in assay [17], 317 pM; in [18], 87.5 pM.

B4: 119 antibody variant with mutated heavy and light chains (antibody, human IgG1, V domains shown)
VH: B3 VH
VL: B3 VL
notes: human IgG1 with L234A, L235A, G237A, N297A
Consider B4, for which the Kd in assay [19] worked out at 317 pM; in [20], 87.5 pM.

B5: S138 (scFv)
scFv: EIVLTQSPGTLSVSPGERVILTCRASQSVDTYNLAWYQQKPGQAPRLLIYDLSTRATGIPDRFSGSGSGTEFTLTINSLEPEDFAVYYCHQYYDWPPYTFGGGTKVEIKGQSSRSSGGGGSSGGGGSDVQLVESGGGVVRPGESLRLSCAASGFTFSNYAMNWVRQAPGEGLEWVSGISGRGGDTYYADSVKGRFTISRDNSKNTLYLQMNSLRAEDTAIYYCAKGTWNYGSFDYWGLGTLVTVSSSLDPKSSDKTDTCPPCPAPELLGGPSVFLFPPKPKDTLMISRTPEVTCVVVDVSHEDPEVKFNWYVDGV
notes: also called clone S138
As for B5, the binding result (with human SIRPγ isoform 1 [21]; in [22]; in assay [23]) was “no binding (tested: about 1 µg/ml)” in each case.

By Kd is commonly meant a measure of binding affinity in units of concentration.
